Experimental data from patent publication US20210324359A1, “USE OF GRAM-NEGATIVE LYSIN-ANTIMICROBIAL PEPTIDE (AMP) POLYPEPTIDE CONSTRUCTS IN TREATING ENDOCARDITIS” (priority 2020, published 2021).

Experiments:
[1] = tested on: Pseudomonas aeruginosa strain CFS-1292 (meropenem resistant); conditions: strain CFS-1292; no added cations
Protocol: The activity of selected GN lysins and constructs in the presence of divalent cations was evaluated, and the impact of divalent cations at physiological concentrations was examined in the MIC assay format.

[2] = tested on: Pseudomonas aeruginosa biofilm; experiment: MBEC in CAA supplemented with […] human serum (Table 14); assay type: cell-based
Protocol: Biofilms are then washed and treated with e.g., a 2-fold dilution series of the lysin in TSBg at e.g., 37° C. for 24 hours. After treatment, wells are washed, air-dried at e.g., 37° C. and stained with e.g., 0.05% crystal violet for 10 minutes.
Materials and methods: MICs were determined by broth microdilution in media supplemented with human serum and pulmonary surfactant ([…]®; Myoderm Clinical Supplies). Minimal biofilm eradicating concentrations (MBECs) were determined using standard methods. […] Fluorescence microscopy was performed after LIVE/DEAD staining (ThermoFisher) and TEM was performed.

P. aeruginosa strains = experiment: Checkerboard synergy with meropenem in 25% CAA and […] human serum (Table 16); assay type: cell-based, Pseudomonas aeruginosa; conditions: for FICI value (Run #1), with meropenem / FICI value (Run #2), with meropenem: 25% CAA and […] human serum
[3] = tested on: Pseudomonas aeruginosa strain 1292; conditions: 10 μg/mL, 15 minutes, 100% human serum
Description: Samples were stained using the Live/Dead Cell Viability Kit (ThermoFisher) and examined by both differential interference contrast (DIC) and fluorescence microscopy.

B1: GN121: variant lysin (SEQ ID NO: 175), also disclosed in WO 2019/118632 (protein)
chain: MTYTLSKRSLDNLKGVHPDLVAVVHRAIQLTPVDFAVIEGLRSVSRQKELVAAGASKTMNSRHLTGHAVDLAAYVNGIRWDWPLYDAIAVAVKAAAKELGVAIVWGGDWTTFKDGPHFELDRSKYRRKKTRKRLKKIGKVLKWI
[1]
  MIC in 25% CAA: 1 to 2 µg/mL
[2]
  MBEC in CAA supplemented with […] human serum: 0.25 µg/mL
P. aeruginosa strains; FICI less than or equal to 0.5 = potent synergy
  synergy with meropenem: exhibited synergy with meropenem
P. aeruginosa strains; strain CFS 1292
  FICI value (Run #1), with meropenem: 0.25
  FICI value (Run #2), with meropenem: 0.292
P. aeruginosa strains; strain CFS 1557 (PA19)
  FICI value (Run #1), with meropenem: 0.375
  FICI value (Run #2), with meropenem: 0.427
P. aeruginosa strains; strain CFS 1558 (PA20)
  FICI value (Run #1), with meropenem: 0.125
  FICI value (Run #2), with meropenem: 0.156
P. aeruginosa strains; strain CFS 1559 (PA21)
  FICI value (Run #2), with meropenem: 0.229
P. aeruginosa strains; strain CFS 1560 (PA22)
  FICI value (Run #2), with meropenem: 0.313
P. aeruginosa strains; strain CFS 1561 (PA23)
  FICI value (Run #2), with meropenem: 0.198
P. aeruginosa strains; strain CFS 1562 (PA24)
  FICI value (Run #2), with meropenem: 0.214
P. aeruginosa strains; strain CFS 1766 (ATCC 27853)
  FICI value (Run #2), with meropenem: 0.229
[3]
  live/dead bacteria by microscopy: a reduction of live bacteria
